15 molecules from PMC314469, “Protein Interaction Networks by Proteome Peptide Scanning” (PLoS Biology, 2004) can be followed below.

In test [1] the target is T1, amphyphisin SH3 (AMPH_HUMAN), P49418.
T1 chain: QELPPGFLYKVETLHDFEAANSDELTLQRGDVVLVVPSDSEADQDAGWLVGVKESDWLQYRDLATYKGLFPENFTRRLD
Nature of the test: SPOT array.

The target of test [2] is endophilin SH3 (SH3G2_HUMAN), Q99962. Kind of test: SPOT array.

B1: Q8WWW8 303-317 (peptide)
chain: SNTPPPRPPKPSHL
For the molecule B1, the normalised SPOT signal, Boehringer light units (BLU); mean over the file's lines of this peptide in test [1] was 2120; in test [2] it was 18000.

B2: Q9UFD8 131-145 (peptide)
chain: SAVGPNRPPTVSQP
Take B2: the normalised SPOT signal, Boehringer light units (BLU); mean over the file's lines of this peptide in test [1] was determined as 51.4; in test [2], 969.

B3: Q9Y6V0 260-274 (peptide)
chain: SLPSPSKPPIQQPT
Take B3: the results for the normalised SPOT signal, Boehringer light units (BLU); mean over the file's lines of this peptide in test [1] and in test [2] were 55.1 and 94.9, respectively.

B4: Q9H8S7 107-120 (peptide)
chain: SPARPRRPHASRDG
For B4, the normalised SPOT signal, Boehringer light units (BLU); mean over the file's lines of this peptide came out at 13800 in test [1] and 8710 in test [2].

B5: Q9P206 440-453 (peptide)
chain: SLRKLKRPPPPPRR
In the case of B5, the values for the normalised SPOT signal, Boehringer light units (BLU); mean over the file's lines of this peptide in test [1] and in test [2] were 78.1 and 199, respectively.

B6: Q9H0X9 173-186 (peptide)
chain: SSELIERPSKKDGF
For the molecule B6, the normalised SPOT signal, Boehringer light units (BLU); mean over the file's lines of this peptide in test [1] was determined as 120; in test [2], 71.5.

B7: Q9P0U4 231-244 (peptide)
chain: SLPRPRRPLPTQQQ
Regarding B7, the normalised SPOT signal, Boehringer light units (BLU); mean over the file's lines of this peptide came to 509 in test [1] and 3100 in test [2].

B8: P51816 884-898 (peptide)
chain: SPAPPHKPPNTREN
As for B8, the figures for the normalised SPOT signal, Boehringer light units (BLU); mean over the file's lines of this peptide in test [1] and in test [2] were 48.2 and 78.5, respectively.

B9: Q9NZ56 228-242 (peptide)
chain: SMGPPSKPPDEEHR
Take B9: the normalised SPOT signal, Boehringer light units (BLU); mean over the file's lines of this peptide in test [1] was 49.6; in test [2] it was 44.5.

B10: Q9UBP0 16-30 (peptide)
chain: SNPVPPRPPPPSLA
Regarding B10, the results for the normalised SPOT signal, Boehringer light units (BLU); mean over the file's lines of this peptide in test [1] and in test [2] were 143 and 11600, respectively.

B11: O94848 219-232 (peptide)
chain: SMFFIRRPTLDINW
With B11, the normalised SPOT signal, Boehringer light units (BLU); mean over the file's lines of this peptide in test [1] stood at 58.5; in test [2] it was 744.

B12: Q9HCU4 2269-2282 (peptide)
chain: SLRVPKRPIINTPV
For B12, the figures for the normalised SPOT signal, Boehringer light units (BLU); mean over the file's lines of this peptide in test [1] and in test [2] were 53.7 and 2480, respectively.

B13: O14746 231-244 (peptide)
chain: SLPLPKRPRRGAAP
For the molecule B13, the normalised SPOT signal, Boehringer light units (BLU); mean over the file's lines of this peptide came to 5540 in test [1] and 9620 in test [2].

B14: Q9UHI4 161-175 (peptide)
chain: SLVLPSRPPIGLPP
B14: the normalised SPOT signal, Boehringer light units (BLU); mean over the file's lines of this peptide in test [1] was 40.4; in test [2] it was 72.4.

B15: Q15742 478-492 (peptide)
chain: SPSVPAKPPLAEFE
On to B15, for which the results for the normalised SPOT signal, Boehringer light units (BLU); mean over the file's lines of this peptide in test [1] and in test [2] were 47.9 and 67.1, respectively.
